B1: Mycobacterium smegmatis KGD, full-length (enzyme, UniProt A0R2B1 1-1227, looked up)
chain: MSSSPSPFGQNEWLVEEMYRKFRDDPSSVDPSWHEFLVDYSPEPTTDSASNGRTTTAAPVTPPTPAPAPAPEPKAAPKPAAKTEAKPAKPAKSATPAKGDESQILRGAAAAVVKNMNASLEVPTATSVRAIPAKLMIDNRVVINNHLKRTRGGKISFTHLLGYAIVQAVKKFPNMNRHFAVVDGKPTAITPAHTNLGLAIDLQGKDGNRSLVVAAIKRCETMRFGQFIAAYEDIVRRARDGKLTAEDFSGVTISLTNPGTLGTVHSVPRLMQGQGAIIGAGAMEYPAEFQGASEERIADLGIGKLITLTSTYDHRIIQGAESGDFLRTIHQLLLDDDFFDEIFRELGIPYEPVRWRTDNPDSIEDKNARVIELIAAYRNRGHLMADIDPLRLDNTRFRSHPDLDVNSHGLTLWDLDREFKVDGFAGVQRKKLRDILSVLRDAYCRHVGVEYTHILEPEQQRWIQERVETKHDKPTVAEQKYILSKLNAAEAFETFLQTKYVGQKRFSLEGAETVIPMMDAVIDQCAEHGLDEVVIAMPHRGRLNVLANIVGKPYSQIFSEFEGNLNPSQAHGSGDVKYHLGATGTYIQMFGDNDIEVSLTANPSHLEAVDPVLEGLVRAKQDLLDTGEEGSDNRFSVVPLMLHGDAAFAGQGVVAETLNLALLRGYRTGGTIHIVVNNQIGFTTAPTDSRSSEYCTDVAKMIGAPIFHVNGDDPEACAWVARLAVDFRQAFKKDVVIDMLCYRRRGHNEGDDPSMTQPYMYDVIDTKRGSRKAYTEALIGRGDISMKEAEDALRDYQGQLERVFNEVRELEKHEIEPSESVEADQQIPSKLATAVDKAMLQRIGDAHLALPEGFTVHPRVRPVLEKRREMAYEGRIDWAFAELLALGSLIAEGKLVRLSGQDTQRGTFTQRHAVIVDRKTGEEFTPLQLLATNPDGTPTGGKFLVYNSALSEFAAVGFEYGYSVGNPDAMVLWEAQFGDFVNGAQSIIDEFISSGEAKWGQLSDVVLLLPHGHEGQGPDHTSGRIERFLQLWAEGSMTIAMPSTPANYFHLLRRHGKDGIQRPLIVFTPKSMLRNKAAVSDIRDFTESKFRSVLEEPMYTDGEGDRNKVTRLLLTSGKIYYELAARKAKENREDVAIVRIEQLAPLPRRRLAETLDRYPNVKEKFWVQEEPANQGAWPSFGLTLPEILPDHFTGLKRISRRAMSAPSSGSSKVHAVEQQEILDTAFG
notes: KGD (two-in-one 2-oxoglutarate dehydrogenase, E2o and E1o domains on one chain), Mycobacterium smegmatis, full-length protein; Crystallised with 2 mM ThDP and 5 mM MgCl2; also called MsKGD; mycobacterial KGD; source: E. coli BL21(DE3)pLysS, purified as previously described
B2: OdhAΔ97 (C. glutamicum OdhA residues 98-1221) (domain or fragment, Corynebacterium glutamicum ATCC13032, UniProt Q8NRC3 98-1221, looked up)
chain: KLPEPGQTPIRGIFKSIAKNMDISLEIPTATSVRDMPARLMFENRAMVNDQLKRTRGGKISFTHIIGYAMVKAVMAHPDMNNSYDVIDGKPTLIVPEHINLGLAIDLPQKDGSRALVVAAIKETEKMNFSEFLAAYEDIVARSRKGKLTMDDYQGVTVSLTNPGGIGTRHSVPRLTKGQGTIIGVGSMDYPAEFQGASEDRLAELGVGKLVTITSTYDHRVIQGAVSGEFLRTMSRLLTDDSFWDEIFDAMNVPYTPMRWAQDVPNTGVDKNTRVMQLIEAYRSRGHLIADTNPLSWVQPGMPVPDHRDLDIETHNLTIWDLDRTFNVGGFGGKETMTLREVLSRLRAAYTLKVGSEYTHILDRDERTWLQDRLEAGMPKPTQAEQKYILQKLNAAEAFENFLQTKYVGQKRFSLEGAEALIPLMDSAIDTAAGQGLDEVVIGMPHRGRLNVLFNIVGKPLASIFNEFEGQMEQGQIGGSGDVKYHLGSEGQHLQMFGDGEIKVSLTANPSHLEAVNPVMEGIVRAKQDYLDKGVDGKTVVPLLLHGDAAFAGLGIVPETINLAKLRGYDVGGTIHIVVNNQIGFTTTPDSSRSMHYATDYAKAFGCPVFHVNGDDPEAVVWVGQLATEYRRRFGKDVFIDLVCYRLRGHNEADDPSMTQPKMYELITGRETVRAQYTEDLLGRGDLSNEDAEAVVRDFHDQMESVFNEVKEGGKKQAEAQTGITGSQKLPHGLETNISREELLELGQAFANTPEGFNYHPRVAPVAKKRVSSVTEGGIDWAWGELLAFGSLANSGRLVRLAGEDSRRGTFTQRHAVAIDPATAEEFNPLHELAQSKGNNGKFLVYNSALTEYAGMGFEYGYSVGNEDSIVAWEAQFGDFANGAQTIIDEYVSSGEAKWGQTSKLILLLPHGYEGQGPDHSSARIERFLQLCAEGSMTVAQPSTPANHFHLLRRHALSDLKRPLVIFTPKSMLRNKAAASAPEDFTEVTKFQSVINDPNVADAAKVKKVMLVSGKLYYELAKRKEKDGRDDIAIVRIEMLHPIPFNRISEALAGYPNAEEVLFVQDEPANQGPWPFYQEHLPELIPNMPKMRRVSRRAQSSTATGVAKVHQLEEKQLIDEAFEA
notes: OdhA, C. glutamicum ATCC13032, Uniprot Q8NRC3, residues 98-1221 (without the flexible N-terminal segment); Crystallised with 5 mM CoASH; source: E. coli BL21(DE3), purified (Ni-NTA, TEV cleavage, SEC); not shown: His6, N-terminal, cleaved
B3: Corynebacterium glutamicum OdhI (residues 1-143) (natural protein, Corynebacterium glutamicum ATCC13032, UniProt Q8NQJ3 1-143, looked up)
chain: MSDNNGTPEPQVETTSVFRADLLKEMESSTGTAPASTGAENLPAGSALLVVKRGPNAGARFLLDQPTTTAGRHPESDIFLDDVTVSRRHAEFRINEGEFEVVDVGSLNGTYVNREPRNAQVMQTGDEIQIGKFRLVFLAGPAE
notes: In the map only the FHA domain (Glu40-Ala142) is traceable; source: E. coli BL21(DE3), purified (Ni-NTA, TEV cleavage, SEC); not shown: His6, N-terminal, cleaved
B4: Corynebacterium glutamicum OdhA, full-length (residues 1-1221) (enzyme, Corynebacterium glutamicum ATCC13032, UniProt Q8NRC3 1-1221, looked up)
chain: MSSASTFGQNAWLVDEMFQQFQKDPKSVDKEWRELFEAQGGPNTTPATTEAQPSAPKESAKPAPKAAPAAKAAPRVETKPADKTAPKAKESSVPQQPKLPEPGQTPIRGIFKSIAKNMDISLEIPTATSVRDMPARLMFENRAMVNDQLKRTRGGKISFTHIIGYAMVKAVMAHPDMNNSYDVIDGKPTLIVPEHINLGLAIDLPQKDGSRALVVAAIKETEKMNFSEFLAAYEDIVARSRKGKLTMDDYQGVTVSLTNPGGIGTRHSVPRLTKGQGTIIGVGSMDYPAEFQGASEDRLAELGVGKLVTITSTYDHRVIQGAVSGEFLRTMSRLLTDDSFWDEIFDAMNVPYTPMRWAQDVPNTGVDKNTRVMQLIEAYRSRGHLIADTNPLSWVQPGMPVPDHRDLDIETHNLTIWDLDRTFNVGGFGGKETMTLREVLSRLRAAYTLKVGSEYTHILDRDERTWLQDRLEAGMPKPTQAEQKYILQKLNAAEAFENFLQTKYVGQKRFSLEGAEALIPLMDSAIDTAAGQGLDEVVIGMPHRGRLNVLFNIVGKPLASIFNEFEGQMEQGQIGGSGDVKYHLGSEGQHLQMFGDGEIKVSLTANPSHLEAVNPVMEGIVRAKQDYLDKGVDGKTVVPLLLHGDAAFAGLGIVPETINLAKLRGYDVGGTIHIVVNNQIGFTTTPDSSRSMHYATDYAKAFGCPVFHVNGDDPEAVVWVGQLATEYRRRFGKDVFIDLVCYRLRGHNEADDPSMTQPKMYELITGRETVRAQYTEDLLGRGDLSNEDAEAVVRDFHDQMESVFNEVKEGGKKQAEAQTGITGSQKLPHGLETNISREELLELGQAFANTPEGFNYHPRVAPVAKKRVSSVTEGGIDWAWGELLAFGSLANSGRLVRLAGEDSRRGTFTQRHAVAIDPATAEEFNPLHELAQSKGNNGKFLVYNSALTEYAGMGFEYGYSVGNEDSIVAWEAQFGDFANGAQTIIDEYVSSGEAKWGQTSKLILLLPHGYEGQGPDHSSARIERFLQLCAEGSMTVAQPSTPANHFHLLRRHALSDLKRPLVIFTPKSMLRNKAAASAPEDFTEVTKFQSVINDPNVADAAKVKKVMLVSGKLYYELAKRKEKDGRDDIAIVRIEMLHPIPFNRISEALAGYPNAEEVLFVQDEPANQGPWPFYQEHLPELIPNMPKMRRVSRRAQSSTATGVAKVHQLEEKQLIDEAFEA
notes: OdhA (E2o succinyltransferase and E1o 2-oxoglutarate decarboxylase domains on one chain), C. glutamicum ATCC13032, Uniprot Q8NRC3, residues 1-1221; TEV site (ENLYFQG) between the vector's His6-tag and the N-terminus; In the maps the chain is traced from Pro102; also called corynebacterial OdhA; source: E. coli BL21(DE3), purified (Ni-NTA, TEV cleavage, SEC); not shown: His6, N-terminal, cleaved

Legend:
OdhAΔ97 = biological target: T1, OdhAΔ97 (Corynebacterium glutamicum, UniProt Q8NRC3); assay: crystal structure, […] Å; type: binding; conditions: co-crystallised with 5 mM CoASH, pH 7.5; E2o acceptor site; pantothenate chain not traced
T1 construct: gene odhA; N-terminal truncation, residues 98-1221, E. coli BL21(DE3), His6-TEV tag cleaved; homohexamer

OdhA = biological target: T2, OdhA (Corynebacterium glutamicum, UniProt Q8NRC3); assay: cryo-EM structure, […] Å; type: binding
T2 construct: full length residues 1-1221, E. coli BL21(DE3), N-terminal His6-TEV tag cleaved for cryo-EM (OdhA-His6 kept for SPR); homohexamer, ~800 kDa

[1] = biological target: the molecule itself; assay: crystal structure; MsKGD (10 mg/ml, 2 mM ThDP, 5 mM MgCl2) co-crystallised with GarA at 1:1 molar ratio; 0.1 M bicine pH 8.0, 30% PEG550MME, 0.2 M NaCl; 4.6 Å
[2] = biological target: the molecule itself; assay: crystal structure; OdhAΔ97 (26 mg/ml) with 5 mM CoASH; 0.1 M Hepes-NaOH pH 7.5, 5% PEG 4000, 30% MPD; 2.5 Å; protomers related by crystallographic symmetry
[3] = biological target: B4; assay: cryo-EM structure; single particle, OdhA incubated with OdhI at molar ratio 1:10, then SEC (Superose 6 increase, 20 mM Hepes pH 7.5, 500 mM NaCl); D3 symmetry; 2.3 Å; conditions: both partners purified
[4] = biological target: the molecule itself; assay: AUC; sedimentation velocity, 20 °C, 30,000 rpm, seven concentrations from 4 mg/ml to 0.0625 mg/ml, 20 mM Hepes pH 7.5, 500 mM NaCl

## CC(C)(COP(=O)(O)OP(=O)(O)OC[C@H]1O[C@@H](n2cnc3c(N)ncnc32)[C@H](O)[C@@H]1OP(=O)(O)O)[C@@H](O)C(=O)NCCC(=O)NCCS [CoASH]
OdhAΔ97
  crystal structure, 2.46 Å: we could model CoASH, which was added to the cocrystallization mixture, as bound
OdhA; E2o active site, out conformation, ThDP-Mg and acetyl-CoA also bound
  cryo-EM structure, 2.2 Å: the OdhA-CoASH complex shows the bound CoASH with the pantothenate chain not entering

## CC(=O)SCCNC(=O)CCNC(=O)[C@H](O)C(C)(C)COP(=O)(O)OP(=O)(O)OC[C@H]1O[C@@H](n2cnc3c(N)ncnc32)[C@H](O)[C@@H]1OP(=O)(O)O [acetyl-CoA]
OdhA; allosteric, E1o domain pocket, no ligand added (co-purified from E. coli), activated conformation
  cryo-EM structure, 2.2 Å: show an acetyl-CoA molecule bound to E1o allosteric site which could be positioned unambiguously

## B1
[1]
  stoichiometry N: 6

## B2
[2]
  stoichiometry N: 6

## B3
[3]
  stoichiometry N: 1

## B4
[4]
  stoichiometry N: 6

— paper PMC10415282, “High resolution cryo-EM and crystallographic snapshots of the actinobacterial two-in-one 2-oxoglutarate dehydrogenase” (Nature Communications, 2023)
